Source: patent US20120283317A1 (University of California, published 2012)
Numbering of substitutions follows the chain as printed. Names may count otherwise.

Experiments:
[1] = biological target: the molecule itself; assay: blue-native gel, PNPASE immunoblot (self-assembly)
Method: Listed are the in vitro effects of mutations on 3′ polymerase and RNA degrading activities as reported by Portnoy et al. (2008) RNA 14: 297-309. […] Radiolabeled RNase P RNA was incubated with isolated yeast mitochondria expressing an empty vector or the listed PNPASE constructs. […] A PORIN immunoblot confirms the co-localization of PNPASE WT and mutants in yeast mitochondria. The assembly state of WT and point mutant PNPASE was determined by solubilization with 1% digitonin and separation on a 6-16% BN gel, followed by PNPASE immunoblot. FIG. 11B (upper) show gels of WT and S484A PNPASE purified from yeast mitochondria using immunoprecipitation. FIG. 11B (lower) show gels of WT or S484A mutant PNPASE was incubated with radiolabeled RNase P RNA for 10 min at 25° C. to assess degradation activity. The asterisk marks degradation products. FIG. 11 C (left) is a gel showing the stability of RNase P RNA imported into mitochondria.
The assembly state of PNPASE was also investigated. […] Soluble proteins were separated on a 6-16% BN gel and PNPASE was detected by immunoblot. […] The PNPASE-HisPC were solubilized with 1% digitonin (Dig) or 0.5% dodecylmaltoside (DDM) and the soluble proteins were separated on a 6-16% BN gel and detected by immunoblot.

[2] = biological target: the molecule itself; assay: 1% digitonin, 6-16% blue-native gel, PNPASE immunoblot (self-assembly)
Method: Radiolabeled RNase P RNA was incubated with isolated yeast mitochondria expressing an empty vector or the listed PNPASE constructs. […] A PORIN immunoblot confirms the co-localization of PNPASE WT and mutants in yeast mitochondria. The assembly state of WT and point mutant PNPASE was determined by solubilization with 1% digitonin and separation on a 6-16% BN gel, followed by PNPASE immunoblot. FIG. 11B (upper) show gels of WT and S484A PNPASE purified from yeast mitochondria using immunoprecipitation. FIG. 11B (lower) show gels of WT or S484A mutant PNPASE was incubated with radiolabeled RNase P RNA for 10 min at 25° C. to assess degradation activity. The asterisk marks degradation products. FIG. 11 C (left) is a gel showing the stability of RNase P RNA imported into mitochondria.
To determine whether the RNA import or stabilization activity of PNPASE was separable from its RNA processing activities, RNase P RNA import was studied when different PNPASE mutants were expressed in yeast mitochondria (FIG. 11A). The point mutants generated and tested were based on prior studies (Portnoy et al. (2008) RNA 14: 297-309). Mutants D135G and S484A lacked poly-A polymerase and RNA degradation activities in vitro. […] Of the four mutants, PNPASE S484A and R445E/R446E supported the import or stabilization of RNase P RNA, whereas mutants D135G and D544G were defective in this function (FIG. 11A). Based on the prior studies of others, it was expected that mutant D135G would fail to form a trimeric complex from prior studies (Portnoy et al. (2008) RNA 14: 297-309).

B1: human PNPASE (polynucleotide phosphorylase) expressed in yeast mitochondria (enzyme, UniProt Q8TCS8 46-783, looked up)
chain: AVAVDLGNRKLEISSGKLARFADGSAVVQSGDTAVMVTAVSKTKPSPSQFMPLVVDYRQKAAAAGRIPTNYLRREIGTSDKEILTSRIIDRSIRPLFPAGYFYDTQVLCNLLAVDGVNEPDVLAINGASVALSLSDIPWNGPVGAVRIGIIDGEYVVNPTRKEMSSSTLNLVVAGAPKSQIVMLEASAENILQQDFCHAIKVGVKYTQQIIQGIQQLVKETGVTKRTPQKLFTPSPEIVKYTHKLAMERLYAVFTDYEHDKVSRDEAVNKIRLDTEEQLKEKFPEADPYEIIESFNVVAKEVFRSIVLNEYKRCDGRDLTSLRNVSCEVDMFKTLHGSALFQRGQTQVLCTVTFDSLESGIKSDQVITAINGIKDKNFMLHYEFPPYATNEIGKVTGLNRRELGHGALAEKALYPVIPRDFPFTIRVTSEVLESNGSSSMASACGGSLALMDSGVPISSAVAGVAIGLVTKTDPEKGEIEDYRLLTDILGIEDYNGDMDFKIAGTNKGITALQADIKLPGIPIKIVMEAIQQASVAKKEILQIMNKTISKPRASRKENGPVVETVQVPLSKRAKFVGPGGYNLKKLQAETGVTISQVDEETFSVFAPTPSAMHEARDFITEICKDDQEQQLEFGAVYTATITEIRDTGVMVKLYPNMTAVLLHNTQLDQRKIKHPTALGLEVGQEIQVKYFGRDPADGRMRLSRKVLQSPATTVVRTLNDRSSIVMGEPISQSSSNSQ
notes: Homo-oligomer of about 240 kDa on blue-native gels; also called hPNP; WT PNPASE
- binding result [1]: binds

B2: human PNPASE double mutant R445E/R446E (enzyme, UniProt Q8TCS8 46-783, looked up)
chain: B1 chain with R400E, R401E
notes: Point mutants are based on Portnoy et al. (2008); The numbering scheme is not further defined
- binding result [2]: binds

B3: human PNPASE mutant S484A (enzyme, UniProt Q8TCS8 46-783, looked up)
chain: B1 chain with S439A
notes: as for B2
- binding result [2]: binds

B4: human PNPASE mutant D135G (enzyme, UniProt Q8TCS8 46-783, looked up)
chain: B1 chain with D90G
notes: as for B2
- binding result [1]: binds

B5: human PNPASE mutant D544G (enzyme, UniProt Q8TCS8 46-783, looked up)
chain: B1 chain with D499G
notes: as for B2
- binding result [2]: binds
